Measurements published in the supplement of paper PMC9112550, “Optimization of the antimicrobial peptide Bac7 by deep mutational scanning” (BMC Biology, 2022).

test system: Escherichia coli TOP10; assay: shrunken log2 fold change of peptide-encoding DNA abundance (4.5 h post-induction vs induction); higher = less antimicrobial activity (less host growth inhibition); details: time post-induction: 4.5 h; library: site-saturation at positions 5, 18, 19, 20
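Also: peptides expressed intracellularly from a pBAD plasmid library in pooled LB shake-flask culture, induced with 0.3% L-arabinose, DNA abundance read by NGS, three biological replicates, DESeq2 with apeglm shrinkage.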

| Sequence | shrunken log2 fold change |
| --- | --- |
| RRIRTRPPRLPRPRPRPQPHPRP | -0.0402 |
| RRIRIRPPRLPRPRPRPDCRPRP | -0.015 |
| RRIRWRPPRLPRPRPRPGRCPRP | 0.897 |
| RRIRNRPPRLPRPRPRPCNDPRP | -0.274 |
| RRIRQRPPRLPRPRPRPIVAPRP | -0.00611 |
| RRIRSRPPRLPRPRPRPHLAPRP | -0.0617 |
| RRIRKRPPRLPRPRPRPNRKPRP | 0.0065 |
| RRIRCRPPRLPRPRPRPILEPRP | -0.247 |
| RRIRHRPPRLPRPRPRPNTFPRP | -0.00529 |
| RRIRLRPPRLPRPRPRPAFEPRP | 0.36 |
| RRIRSRPPRLPRPRPRPGTLPRP | -0.571 |
| RRIRIRPPRLPRPRPRPDLVPRP | -0.201 |
| RRIRYRPPRLPRPRPRPNKSPRP | -0.941 |
| RRIRSRPPRLPRPRPRPMRPPRP | 0.787 |
| RRIRMRPPRLPRPRPRPWVYPRP | -0.0124 |
| RRIRARPPRLPRPRPRPMTMPRP | 0.245 |
| RRIRKRPPRLPRPRPRPMIWPRP | -0.00177 |
| RRIRSRPPRLPRPRPRPNLDPRP | -0.0975 |
| RRIRCRPPRLPRPRPRPLLVPRP | -0.317 |
| RRIRKRPPRLPRPRPRPNFIPRP | -0.144 |
| RRIRGRPPRLPRPRPRPLGIPRP | 0.178 |
| RRIRNRPPRLPRPRPRPFVVPRP | -0.676 |
| RRIRFRPPRLPRPRPRPTCDPRP | -0.0372 |
| RRIRCRPPRLPRPRPRPAAKPRP | 0.164 |
| RRIRTRPPRLPRPRPRPFCGPRP | -0.0697 |

| Sequence | shrunken log2 fold change |
| --- | --- |
| RRIRYRPPRLPRPRPRPFAFPRP | -1.05 |
| RRIRERPPRLPRPRPRPLDMPRP | -0.16 |
| RRIRGRPPRLPRPRPRPGDHPRP | 0.333 |
| RRIRSRPPRLPRPRPRPYLLPRP | -0.613 |
| RRIRERPPRLPRPRPRPGHEPRP | 0.159 |
| RRIRVRPPRLPRPRPRPCLWPRP | 0.0452 |
| RRIRWRPPRLPRPRPRPMDIPRP | -0.175 |
| RRIRDRPPRLPRPRPRPLRYPRP | 0.00765 |
| RRIRYRPPRLPRPRPRPCCQPRP | 0.0173 |
| RRIRGRPPRLPRPRPRPWFFPRP | 0.169 |
| RRIRLRPPRLPRPRPRPKTDPRP | -0.233 |
| RRIRWRPPRLPRPRPRPTHCPRP | 0.213 |
| RRIRCRPPRLPRPRPRPTEGPRP | 0.284 |
| RRIRARPPRLPRPRPRPDDYPRP | -0.0457 |
| RRIRKRPPRLPRPRPRPVSHPRP | 0.0254 |
| RRIRERPPRLPRPRPRPYEEPRP | -0.636 |
| RRIRGRPPRLPRPRPRPYNIPRP | -0.2 |
| RRIRMRPPRLPRPRPRPGFFPRP | 0.423 |
| RRIRWRPPRLPRPRPRPGHHPRP | 0.0195 |
| RRIRKRPPRLPRPRPRPCETPRP | -0.0599 |
| RRIRLRPPRLPRPRPRPMMWPRP | 0.148 |
| RRIRWRPPRLPRPRPRPAAFPRP | 0.334 |
| RRIRPRPPRLPRPRPRPIKWPRP | 0.0716 |
| RRIRTRPPRLPRPRPRPETNPRP | 0.402 |
| RRIRDRPPRLPRPRPRPFHAPRP | -0.108 |

| Sequence | shrunken log2 fold change |
| --- | --- |
| RRIRFRPPRLPRPRPRPMMSPRP | -0.0228 |
| RRIRMRPPRLPRPRPRPIDMPRP | -0.0621 |
| RRIRGRPPRLPRPRPRPNYIPRP | -0.099 |
| RRIRNRPPRLPRPRPRPSLCPRP | 0.0773 |
| RRIRCRPPRLPRPRPRPQVHPRP | -0.233 |
| RRIRRRPPRLPRPRPRPANIPRP | 0.256 |
| RRIRNRPPRLPRPRPRPFHSPRP | -0.0225 |
| RRIRGRPPRLPRPRPRPYWFPRP | 0.105 |
| RRIRIRPPRLPRPRPRPYPTPRP | -0.159 |
| RRIRHRPPRLPRPRPRPTFEPRP | 0.0452 |
| RRIRYRPPRLPRPRPRPMTWPRP | -0.31 |
| RRIRHRPPRLPRPRPRPKPTPRP | 0.0736 |
| RRIRYRPPRLPRPRPRPFIPPRP | -0.296 |
| RRIRDRPPRLPRPRPRPRCSPRP | -0.0967 |
| RRIRTRPPRLPRPRPRPLCQPRP | -0.0705 |
| RRIRGRPPRLPRPRPRPKYRPRP | 0.000233 |
| RRIRWRPPRLPRPRPRPLENPRP | 0.0135 |
| RRIRQRPPRLPRPRPRPVLKPRP | -0.108 |
| RRIRSRPPRLPRPRPRPIEWPRP | 0.0274 |
| RRIRRRPPRLPRPRPRPYKWPRP | -0.138 |
| RRIRYRPPRLPRPRPRPNYNPRP | -1.43 |
| RRIRTRPPRLPRPRPRPDGQPRP | 0.0697 |
| RRIRWRPPRLPRPRPRPSTCPRP | -0.457 |
| RRIRNRPPRLPRPRPRPDGRPRP | -0.109 |
| RRIRHRPPRLPRPRPRPGPPPRP | 0.228 |

| Sequence | shrunken log2 fold change |
| --- | --- |
| RRIRTRPPRLPRPRPRPVLYPRP | -0.365 |
| RRIRPRPPRLPRPRPRPHNDPRP | -0.566 |
| RRIRMRPPRLPRPRPRPPPSPRP | 1.95 |
| RRIRHRPPRLPRPRPRPPCFPRP | -0.0882 |
| RRIRMRPPRLPRPRPRPYTKPRP | -0.0606 |
| RRIRVRPPRLPRPRPRPMWLPRP | 0.0511 |
| RRIRYRPPRLPRPRPRPLEMPRP | -0.0768 |
| RRIRCRPPRLPRPRPRPMDLPRP | -0.0384 |
| RRIRRRPPRLPRPRPRPSHVPRP | 0.151 |
| RRIRWRPPRLPRPRPRPNVEPRP | -0.319 |
| RRIRMRPPRLPRPRPRPEEIPRP | 0.0117 |
| RRIRSRPPRLPRPRPRPNVGPRP | -0.0139 |
| RRIRIRPPRLPRPRPRPIWPPRP | 0.155 |
| RRIRDRPPRLPRPRPRPYEMPRP | -0.000896 |
| RRIRCRPPRLPRPRPRPWNCPRP | -0.142 |
| RRIRDRPPRLPRPRPRPVSPPRP | -0.134 |
| RRIRTRPPRLPRPRPRPWNWPRP | 0.0309 |
| RRIRSRPPRLPRPRPRPYPWPRP | -0.591 |
| RRIRMRPPRLPRPRPRPWSNPRP | -0.254 |
| RRIRTRPPRLPRPRPRPCTWPRP | -0.0134 |
| RRIRERPPRLPRPRPRPNYEPRP | -0.182 |
| RRIRVRPPRLPRPRPRPRFEPRP | 0.376 |
| RRIRARPPRLPRPRPRPPFNPRP | 0.167 |
| RRIRGRPPRLPRPRPRPPGVPRP | 0.931 |
| RRIRARPPRLPRPRPRPSLRPRP | 0.109 |

| Sequence | shrunken log2 fold change |
| --- | --- |
| RRIRPRPPRLPRPRPRPEKSPRP | 0.264 |
| RRIRIRPPRLPRPRPRPQMYPRP | -0.211 |
| RRIRYRPPRLPRPRPRPSVQPRP | -0.065 |
| RRIRWRPPRLPRPRPRPIEGPRP | -0.000175 |
| RRIRGRPPRLPRPRPRPHMPPRP | -0.0535 |
| RRIRMRPPRLPRPRPRPMFVPRP | -0.298 |
| RRIRQRPPRLPRPRPRPKESPRP | 0.0355 |
| RRIRYRPPRLPRPRPRPLGHPRP | 0.0209 |
| RRIRLRPPRLPRPRPRPPMYPRP | -0.093 |
| RRIRHRPPRLPRPRPRPARNPRP | 0.093 |
| RRIRERPPRLPRPRPRPSNYPRP | -1.12 |
| RRIRPRPPRLPRPRPRPSMWPRP | -0.252 |
| RRIRNRPPRLPRPRPRPDEWPRP | 0.0842 |
| RRIRWRPPRLPRPRPRPCSMPRP | -0.565 |
| RRIRFRPPRLPRPRPRPYAAPRP | -0.586 |
| RRIRVRPPRLPRPRPRPYSTPRP | -0.00968 |
| RRIRMRPPRLPRPRPRPWRTPRP | 0.324 |
| RRIRARPPRLPRPRPRPVRSPRP | 0.345 |
| RRIRTRPPRLPRPRPRPMDLPRP | -0.0399 |
| RRIRHRPPRLPRPRPRPKYHPRP | -0.773 |
| RRIRCRPPRLPRPRPRPFIFPRP | -0.425 |
| RRIRPRPPRLPRPRPRPGDMPRP | 0.00271 |
| RRIRGRPPRLPRPRPRPRLSPRP | 0.313 |
| RRIRKRPPRLPRPRPRPLWIPRP | 0.134 |
| RRIRYRPPRLPRPRPRPTLAPRP | 0.239 |

| Sequence | shrunken log2 fold change |
| --- | --- |
| RRIRNRPPRLPRPRPRPNRHPRP | -0.17 |
| RRIRNRPPRLPRPRPRPRPHPRP | 0.226 |
| RRIRQRPPRLPRPRPRPHGEPRP | 0.215 |
| RRIRKRPPRLPRPRPRPFAAPRP | 0.662 |
| RRIRVRPPRLPRPRPRPQPVPRP | -0.195 |
| RRIRHRPPRLPRPRPRPLDVPRP | 0.0138 |
| RRIRYRPPRLPRPRPRPIEPPRP | -0.111 |
| RRIRMRPPRLPRPRPRPEVMPRP | 2.84 |
| RRIRARPPRLPRPRPRPTDKPRP | 0.391 |
| RRIRKRPPRLPRPRPRPERTPRP | 0.772 |
| RRIRRRPPRLPRPRPRPEGYPRP | 0.202 |
| RRIRQRPPRLPRPRPRPVTKPRP | -0.0142 |
| RRIRLRPPRLPRPRPRPRDNPRP | -0.127 |
| RRIRARPPRLPRPRPRPFITPRP | -0.543 |
| RRIRWRPPRLPRPRPRPWCEPRP | -0.372 |
| RRIRTRPPRLPRPRPRPTYPPRP | 0.0247 |
| RRIRSRPPRLPRPRPRPWVVPRP | -0.00703 |
| RRIRKRPPRLPRPRPRPCMQPRP | 0.121 |
| RRIRSRPPRLPRPRPRPWVGPRP | -0.452 |
| RRIRHRPPRLPRPRPRPELCPRP | -0.135 |
| RRIRVRPPRLPRPRPRPLVCPRP | -0.253 |
| RRIRIRPPRLPRPRPRPICWPRP | 0.307 |
| RRIRERPPRLPRPRPRPLRLPRP | 0.304 |
| RRIRLRPPRLPRPRPRPDNMPRP | -0.519 |
| RRIRLRPPRLPRPRPRPAEKPRP | -0.0786 |
